Assay results from paper PMC8602626.

Biological target: GluA1::SNAP396 (UniProt P19490)
Chain of UniProt P19490 (P19490 19-907): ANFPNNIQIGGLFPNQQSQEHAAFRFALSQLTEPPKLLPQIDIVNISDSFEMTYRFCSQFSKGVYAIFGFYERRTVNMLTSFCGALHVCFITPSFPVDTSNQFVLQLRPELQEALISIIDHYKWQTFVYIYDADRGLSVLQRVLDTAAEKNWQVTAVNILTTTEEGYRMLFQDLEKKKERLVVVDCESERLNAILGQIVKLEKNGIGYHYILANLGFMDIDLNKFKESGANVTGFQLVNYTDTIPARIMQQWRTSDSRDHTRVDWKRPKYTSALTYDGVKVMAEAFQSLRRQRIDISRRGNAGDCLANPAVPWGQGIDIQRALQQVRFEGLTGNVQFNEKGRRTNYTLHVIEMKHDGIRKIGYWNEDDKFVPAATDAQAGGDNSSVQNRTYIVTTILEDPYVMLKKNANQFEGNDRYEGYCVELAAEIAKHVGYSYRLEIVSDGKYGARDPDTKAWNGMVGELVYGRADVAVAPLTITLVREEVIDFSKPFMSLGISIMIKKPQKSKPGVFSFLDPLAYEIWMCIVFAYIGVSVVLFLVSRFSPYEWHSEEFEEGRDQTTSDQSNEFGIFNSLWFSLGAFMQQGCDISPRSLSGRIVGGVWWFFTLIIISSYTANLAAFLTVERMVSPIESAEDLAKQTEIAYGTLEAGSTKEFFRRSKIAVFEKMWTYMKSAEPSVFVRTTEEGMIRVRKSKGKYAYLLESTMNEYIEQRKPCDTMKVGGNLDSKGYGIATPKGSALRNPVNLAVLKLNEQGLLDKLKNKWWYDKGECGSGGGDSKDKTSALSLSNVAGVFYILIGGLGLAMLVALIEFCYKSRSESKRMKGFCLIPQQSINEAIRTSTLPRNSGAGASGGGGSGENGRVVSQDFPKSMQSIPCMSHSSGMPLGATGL

B1: γ2 S44* (natural protein)
chain: MGLFDRGVQMLLTTVGAFAAFSLMTIAVGTDYWLYSRGVCKTKKVSENETSKKNEEVMTHSGLWRTCCLEGNFKGLCKQIDHFPEDADYEADTAEYFLRAVRASSIFPILSVILLFMGGLCIAASEFYKTRHNIILSAGIFFVSAGLSNIIGIIVYISANAGDPSKSDSKKNSYSYGWSFYFGALSFIIAEMVGVLAVHMFIDRHKQLRATARATDYLQASAITRIPSYRYRYQRRSRSSSRSTEPSHSRDASPVGVKGFNTLPSTEISMYTLSRDPLKAATTPTATYNSDRDNSFLQVHNCIQKDSKDSLHANTANRRTTPV
modifications: TCO*A (trans-cyclooct-2-ene-L-lysine) at 44, clicked with H-Tet-Cy3
recovery from desensitization τrec, whole-cell patch clamp, HEK293T cells with untagged GluA1 (flip isoform) and γ2 S44*::eGFP (GluA1 alone 162.6): 62.3 ms

B2: γ2::eGFP (natural protein)
chain: MGLFDRGVQMLLTTVGAFAAFSLMTIAVGTDYWLYSRGVCKTKSVSENETSKKNEEVMTHSGLWRTCCLEGNFKGLCKQIDHFPEDADYEADTAEYFLRAVRASSIFPILSVILLFMGGLCIAASEFYKTRHNIILSAGIFFVSAGLSNIIGIIVYISANAGDPSKSDSKKNSYSYGWSFYFGALSFIIAEMVGVLAVHMFIDRHKQLRATARATDYLQASAITRIPSYRYRYQRRSRSSSRSTEPSHSRDASPVGVKGFNTLPSTEISMYTLSRDPLKAATTPTATYNSDRDNSFLQVHNCIQKDSKDSLHANTANRRTTPV
recovery from desensitization τrec, whole-cell patch clamp, HEK293T cells with untagged GluA1 (flip isoform) and γ2::eGFP (GluA1 alone 162.6): 57.1 ms

B3: γ8::eGFP (natural protein)
chain: MESLKRWNEERGLWCEKGVQVLLTTIGAFAAFGLMTIAISTDYWLYTRALICNTTNLTAGDDGPPHRGGSGSSEKKDPGGLTHSGLWRICCLEGLKRGVCVKINHFPEDTDYDHDSAEYLLRVVRASSIFPILSAILLLLGGVCVAASRVYKSKRNIILGAGILFVAAGLSNIIGVIVYISANAGEPGPKRDEEKKNHYSYGWSFYFGGLSFILAEVIGVLAVNIYIERSREAHCQSRSDLLKAGGGAGGSGGSGPSAILRLPSYRFRYRRRSRSSSRGSSEASPSRDASPGGPGGPGFASTDISMYTLSRDPSKGSVAAGLASAGGGGGGAGVGAYGGAAGAAGGGGTGSERDRGSSAGFLTLHNAFPKEAASGVTVTVTGPPAAPAPAPPAPAAPAPGTLSKEAAASNTNTLNRKTTPV
recovery from desensitization τrec, whole-cell patch clamp, HEK293T cells with untagged GluA1 (flip isoform) and γ8::eGFP (GluA1 alone 162.6): 40.9 ms

B4: γ8 S72* (natural protein)
chain: MESLKRWNEERGLWCEKGVQVLLTTIGAFAAFGLMTIAISTDYWLYTRALICNTTNLTAGDDGPPHRGGSGKSEKKDPGGLTHSGLWRICCLEGLKRGVCVKINHFPEDTDYDHDSAEYLLRVVRASSIFPILSAILLLLGGVCVAASRVYKSKRNIILGAGILFVAAGLSNIIGVIVYISANAGEPGPKRDEEKKNHYSYGWSFYFGGLSFILAEVIGVLAVNIYIERSREAHCQSRSDLLKAGGGAGGSGGSGPSAILRLPSYRFRYRRRSRSSSRGSSEASPSRDASPGGPGGPGFASTDISMYTLSRDPSKGSVAAGLASAGGGGGGAGVGAYGGAAGAAGGGGTGSERDRGSSAGFLTLHNAFPKEAASGVTVTVTGPPAAPAPAPPAPAAPAPGTLSKEAAASNTNTLNRKTTPV
modifications: TCO*A (trans-cyclooct-2-ene-L-lysine) at 72, clicked with H-Tet-Cy3
recovery from desensitization τrec, whole-cell patch clamp, HEK293T cells with untagged GluA1 (flip isoform) and γ8 S72*::eGFP (GluA1 alone 162.6): 45.8 ms
